According to the supplement of paper PMC9233669:
Variants at the floor of the assay were thinned out.

Key:
biotinyl-Phe-oxazolone = assay: self-aminoacylation, catalytic enhancement (BFO) (fold over background); higher = more active; k-Seq, kA / k0A0; sequences stand for … in GGGAAUGGAUCCACAUCUACGAAUUC…UUCACUGCAGACUUGACGAAGCUG
Method in brief: (§1)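 Mutagenized RNA pools with a 21-nt variable region (0.43 μM) were reacted with each biotinyl-aminoacyl-oxazolone at 2–1250 μM for 90 minutes at room temperature, in 50 μL HEPES/NaCl/KCl/MgCl2/CaCl2 buffer containing 5% acetonitrile at pH 6.9–7.0. RNA captured on streptavidin was quantified by triplicate qPCR and by Illumina sequencing. The fraction reacted for each sequence was fit to a pseudo-first-order model with bootstrapping, and catalytic enhancement is the median kA divided by the uncatalyzed rate, taken as the low-activity peak of a bimodal Gaussian fit.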

biotinyl-Met-oxazolone = assay: self-aminoacylation, catalytic enhancement (BMO) (fold over background); higher = more active; k-Seq, kA / k0A0; sequences stand for … in GGGAAUGGAUCCACAUCUACGAAUUC…UUCACUGCAGACUUGACGAAGCUG
Method in brief: as §1

biotinyl-Trp-oxazolone = assay: self-aminoacylation, catalytic enhancement (BWO) (fold over background); higher = more active; k-Seq, kA / k0A0; sequences stand for … in GGGAAUGGAUCCACAUCUACGAAUUC…UUCACUGCAGACUUGACGAAGCUG
Method in brief: as §1

biotinyl-Ile-oxazolone = assay: self-aminoacylation, catalytic enhancement (BIO) (fold over background); higher = more active; k-Seq, kA / k0A0; sequences stand for … in GGGAAUGGAUCCACAUCUACGAAUUC…UUCACUGCAGACUUGACGAAGCUG
Method in brief: as §1

biotinyl-Leu-oxazolone = assay: self-aminoacylation, catalytic enhancement (BLO) (fold over background); higher = more active; k-Seq, kA / k0A0; sequences stand for … in GGGAAUGGAUCCACAUCUACGAAUUC…UUCACUGCAGACUUGACGAAGCUG
Method in brief: as §1

biotinyl-Val-oxazolone = assay: self-aminoacylation, catalytic enhancement (BVO) (fold over background); higher = more active; k-Seq, kA / k0A0; sequences stand for … in GGGAAUGGAUCCACAUCUACGAAUUC…UUCACUGCAGACUUGACGAAGCUG
Method in brief: as §1

Row | Sequence | self-aminoacylation (biotinyl-Phe-oxazolone) | self-aminoacylation (biotinyl-Met-oxazolone) | self-aminoacylation (biotinyl-Trp-oxazolone) | self-aminoacylation (biotinyl-Ile-oxazolone) | self-aminoacylation (biotinyl-Leu-oxazolone) | self-aminoacylation (biotinyl-Val-oxazolone)
1 | CCCCACUUCAAGGAAUCGGUC [Fam1B.1 aminoacylation ribozyme variant] | 11.3 | 2.33 | 13 | 2.4 | 2.62 | 2.15
2 | AUUCACCUAGGUCAUGGGGAG [Fam2.2 aminoacylation ribozyme variant] | 0.544 | 0.889 | 1.56 | 1.03 | 0.853 | 0.979
3 | CAGUUUGCUAAUCGUCGCAAG [Fam3.1 aminoacylation ribozyme variant] | 0.994 | 0.993 | 1.05 | 0.971 | 1.32 | 1.07
4 | AUUACCCCGGACAUCGAGUGA [Fam2.1 aminoacylation ribozyme variant] | 19.6 | 4.74 | 5.47 | 2.38 | 4.04 | 2.48
5 | AUUCCCCUAGGUCAUCUGGUG [Fam2.2 aminoacylation ribozyme variant] | 107 | 14.7 | 15.3 | 10.6 | 18.8 | 9.58
6 | AUUACCCUUGUCAUCGAGUGA [Fam2.1 aminoacylation ribozyme variant] | 21.8 | 5.94 | 7.65 | 3.19 | 5.88 | 3.54
7 | AUUCCCCUAGGUCAUCCGGUG [Fam2.2 aminoacylation ribozyme variant] | 295 | 38.5 | 39.5 | 27.6 | 51.5 | 26.9
8 | AAUUUUGCUACUAGUCGCAAG [Fam3.1 aminoacylation ribozyme variant] | 2.25 | 1.53 | 2.5 | 1.87 | 1.54 | 1.74
9 | CCACACUUCAAGAACUCGGUC [Fam1B.1 aminoacylation ribozyme variant] | 0.548 | 0.696 | 0.586 | 0.836 | 1.01 | 1.01
10 | AUGUUUGCUAAUAGUAGCAAG [Fam3.1 aminoacylation ribozyme variant] | 1.67 | 1.34 | 0.911 | 1.29 | 0.912 | 1.36
11 | CUACUUCACACAAUCCGUCUG [Fam1A.1 aminoacylation ribozyme variant] | 0.747 | 0.913 | 0.495 | 0.859 | 0.81 | 0.854
12 | AUUCACGUAGGUCAUCGGUUG [Fam2.2 aminoacylation ribozyme variant] | 4.98 | 1.23 | 0.72 | 1.2 | 1.35 | 1.24
13 | CCACACUUCAAGCCACCGGUC [Fam1B.1 aminoacylation ribozyme variant] | 1.28 | 1.43 | 1.23 | 1.64 | 1.47 | 2.12
14 | CCACACCUCACGCAAUCGGUC [Fam1B.1 aminoacylation ribozyme variant] | 1.34 | 1.27 | 2.13 | 1.84 | 1.58 | 1.99
15 | AAGUCUGCUAAUAGUCGCAUG [Fam3.1 aminoacylation ribozyme variant] | 2.06 | 1.72 | 1.91 | 0.998 | 1.89 | 1.27
16 | AUUACCCUGGUCGUCGAGUGU [Fam2.1 aminoacylation ribozyme variant] | 2.78 | 1.39 | 1.15 | 1.07 | 1.08 | 1.2
17 | AAUACCCUGGUCUUCGAGUGA [Fam2.1 aminoacylation ribozyme variant] | 12.6 | 3.34 | 4.72 | 2.2 | 3.26 | 2.32
18 | AUUCAACUGGGUCAUCGGGUG [Fam2.2 aminoacylation ribozyme variant] | 39.5 | 5.25 | 5.74 | 3.89 | 7.37 | 3.96
19 | AUUCACCGAGGUCUUCGGGUG [Fam2.2 aminoacylation ribozyme variant] | 40.7 | 4.94 | 6.52 | 3.97 | 7.58 | 4.69
20 | UUUACCCUGGUCAUCGAUUGA [Fam2.1 aminoacylation ribozyme variant] | 0.947 | 0.837 | 1.09 | 1.06 | 1.08 | 1.13
21 | AUUACCCUGGUCAUCGGGGGA [Fam2.1 aminoacylation ribozyme variant] | 44.2 | 7.12 | 10.7 | 4.75 | 9.21 | 5.36
22 | CCAGACUUCAAGCAAUGGGUC [Fam1B.1 aminoacylation ribozyme variant] | 0.887 | 0.72 | 0.74 | 0.856 | 0.759 | 0.856

Row | Sequence | self-aminoacylation (biotinyl-Phe-oxazolone) | self-aminoacylation (biotinyl-Met-oxazolone) | self-aminoacylation (biotinyl-Trp-oxazolone) | self-aminoacylation (biotinyl-Ile-oxazolone) | self-aminoacylation (biotinyl-Leu-oxazolone) | self-aminoacylation (biotinyl-Val-oxazolone)
23 | CUCCUUUAAACAAUCGGUCUG [Fam1A.1 aminoacylation ribozyme variant] | 1.73 | 1.12 | 1.36 | 0.972 | 0.712 | 0.974
24 | AUUACCCUGCUCAUCGAGUGA [Fam2.1 aminoacylation ribozyme variant] | 2.7 | 1.99 | 2.33 | 1.34 | 1.87 | 1.52
25 | AAUACCUUGGUCAUCGAGUGA [Fam2.1 aminoacylation ribozyme variant] | 7.36 | 6.2 | 7.87 | 4.23 | 6.66 | 3.99
26 | AUUUACAUAGGUCAUCGGGUG [Fam2.2 aminoacylation ribozyme variant] | 39 | 5.69 | 5.5 | 3.38 | 6.44 | 3.38
27 | AUUACCCUGGUUAUCCAGUGA [Fam2.1 aminoacylation ribozyme variant] | 74.4 | 11.5 | 14.2 | 5.5 | 11.6 | 5.13
28 | AUUCACCCAGGUGAUCGGGUG [Fam2.2 aminoacylation ribozyme variant] | 25.7 | 4.45 | 4.5 | 3.64 | 3.44 | 3.59
29 | AUUCACAUAGGUCAUCGCGUG [Fam2.2 aminoacylation ribozyme variant] | 108 | 14 | 12.1 | 7.23 | 17.6 | 7.84
30 | AAGUUUGCUAAAAGUAGCAAG [Fam3.1 aminoacylation ribozyme variant] | 1.04 | 1.16 | 1.03 | 1.02 | 0.818 | 0.783
31 | CCACAGUUCAAGCAAUCGGCC [Fam1B.1 aminoacylation ribozyme variant] | 0.924 | 2.66 | 3.18 | 2.11 | 2.6 | 3.95
32 | UAUCACCUAGGUCAUCGGGUG [Fam2.2 aminoacylation ribozyme variant] | 15.1 | 4.75 | 5.87 | 3.72 | 4.88 | 3.88
33 | AUUACCCUGGUUAUGGAGUGA [Fam2.1 aminoacylation ribozyme variant] | 47.4 | 7.77 | 8.01 | 3.95 | 7.9 | 3.93
34 | AAUCACCGAGGUCAUCGGGUG [Fam2.2 aminoacylation ribozyme variant] | 67.7 | 5.14 | 7.72 | 5.03 | 6.88 | 5.33
35 | CCACACUUCUAGCAAUCGUUC [Fam1B.1 aminoacylation ribozyme variant] | 1.04 | 0.511 | 0.481 | 0.767 | 0.558 | 1.01
36 | AAUCACCUAGGUCAUCGGAUG [Fam2.2 aminoacylation ribozyme variant] | 0.476 | 0.909 | 1.08 | 1.06 | 0.798 | 1.19
37 | AUUAGCCUGGCCAUCGAGUGA [Fam2.1 aminoacylation ribozyme variant] | 26.4 | 5.44 | 6.06 | 3.83 | 4.51 | 3.54
38 | CCACACUUCACGCAAUCGUUC [Fam1B.1 aminoacylation ribozyme variant] | 0.716 | 0.717 | 0.939 | 0.725 | 0.794 | 0.905
39 | CUACUUAAAACAAUCGGUCAG [Fam1A.1 aminoacylation ribozyme variant] | 0.552 | 0.703 | 0.384 | 0.636 | 0.66 | 0.79
40 | AAGUUUGCCAAUAGUCGCUAG [Fam3.1 aminoacylation ribozyme variant] | 0.897 | 0.716 | 2.08 | 1.15 | 0.951 | 0.926
41 | AUUACCCUGGUCAUCGAUUAA [Fam2.1 aminoacylation ribozyme variant] | 0.508 | 0.935 | 0.619 | 1.02 | 0.933 | 1.1
42 | CCACACUUCAAGCGCUCGGUC [Fam1B.1 aminoacylation ribozyme variant] | 3.37 | 0.81 | 1.41 | 1.04 | 1.21 | 1.09
43 | AUUCACCUAGGUGAUCGGGCG [Fam2.2 aminoacylation ribozyme variant] | 12.5 | 3.9 | 3.84 | 3.28 | 4.11 | 3.62
